Assay results reported in patent publication US20250122299A1 (published 2025).
Residue numbers refer to the chain shown, from its start.

B1: H1_L1.71 (antibody, V domains shown)
VH: EVQLLESGGGLVQPGGSLRLSCAASGFTFSSYAMSWVRQAPGKGLEWVSTISGSGDSTYYADSVKGRFTISRDNSKNTLYLQMNSLRAEDTAVYYCAKSGPGLRQVGFDYWGQGTLVTVSS
VL: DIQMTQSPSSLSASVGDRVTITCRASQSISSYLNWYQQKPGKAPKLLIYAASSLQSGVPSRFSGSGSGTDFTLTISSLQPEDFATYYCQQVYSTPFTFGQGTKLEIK
B2: H1L1 (antibody, V domains shown)
VH: B1 VH
VL: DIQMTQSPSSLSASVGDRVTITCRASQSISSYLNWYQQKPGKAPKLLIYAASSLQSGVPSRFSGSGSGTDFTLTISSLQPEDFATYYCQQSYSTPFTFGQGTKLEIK
B3: H1.1_L1 (antibody, V domains shown)
VH: B1 VH with A33Y
VL: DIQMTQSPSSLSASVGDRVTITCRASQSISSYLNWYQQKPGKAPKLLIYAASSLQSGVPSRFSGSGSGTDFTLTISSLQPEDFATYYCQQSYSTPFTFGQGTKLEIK
B4: H1.1_L1.71 (antibody, V domains shown)
VH: B1 VH with A33Y
VL: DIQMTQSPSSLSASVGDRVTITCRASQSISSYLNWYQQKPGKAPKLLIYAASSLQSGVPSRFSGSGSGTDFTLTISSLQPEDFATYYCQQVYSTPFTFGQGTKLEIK

Each binder was assayed against human CD28 (human, UniProt P10747 19-220) (assay: -; scFv VHVL, 1+1 Fab-scFv-Fc format).

Binder | Kd
B1 | 180 nM
B2 | 1000 nM
B3 | 600 nM
B4 | 96 nM
